Data reported in the supplement of paper PMC7877785.
± gives the uncertainty stated by the source.

Experiment: self-splicing fitness, log relative to wild type (ln ratio); higher = more splicing; Tetrahymena group I intron in knt gene, E. coli kanamycin selection, DiMSum; sequences stand for … in CUCUCU…GGAGGGAAAAGUUAUCAGGCAUGCACCUGGUAGCUAGUCUUUAAACCAAUAGAUUGCAUCGGUUUAAAAGGCAAGACCGUCAAAUUGCGGGAAAGGGGUCAACAGCCGUUCAGUACCAAGUCUCAGGGGAAACUUUGAGAUGGCCUUGCAAAGGGUAUGGUAAUAAGCUGACGGACAUGGUCCUAACCACGCAGCCAAGUCCUAAGUCAACAGAUCUUCUGUUGAUAUGGAUGCAGUUCACAGACUAAAUGUCGGUCGGGGAAGAUGUAUUCUUCUCAUAAGAUAUAGUCGGACCUCUCCUUAAUGGGAGCUAGCGGAUGAAGUGAUGCAACACUGGAGCCGCUGGGAACUAAUUUGUAUGCGAAAGUAUAUUGAUUAGUUUUGGAGUACUCGUGGUCG
Summary of the method: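 Fitness was computed with DiMSum as the error-weighted combination of replicate fold changes, kanamycin versus none, each normalised to wild type. The library randomised all eight intron nucleotides of the P1ex region, with the intron placed in the knt kanamycin-resistance gene on pET-22b(+) in E. coli BL21(DE3). Six replicate transformations were grown overnight at 37°C or 30°C on LB agar with or without 25 μg/mL kanamycin, plus 100 μg/mL carbenicillin, 50 μM IPTG and 0.2% rhamnose. Pooled colonies were amplicon-sequenced on an Illumina HiSeq 2500.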

Row | Sequence | self-splicing fitness (ln) (30 °C) | self-splicing fitness (ln) (37 °C)
1 | GCACAGCAAUAUUACGAUUG | -2.27 ± 0.077 | -0.657 ± 0.083
2 | GCACAGCAAUAUUACGCAAA | -1.72 ± 0.15 | -0.898 ± 0.16
3 | GCACAGCAAUAUUACGCAGU | -1.65 ± 0.12 | -1.32 ± 0.13
4 | GCACAGCAAUAUUACGCCCU | -0.527 ± 0.094 | 0.00502 ± 0.11
5 | GCACAGCAAUAUUACGCUUU | -0.861 ± 0.055 | -0.0512 ± 0.068
6 | GCACAGCAAUAUUACGGAUG | -2.18 ± 0.075 | -1.61 ± 0.096
7 | GCACAGCAAUAUUACGGCAC | -0.752 ± 0.061 | -0.122 ± 0.073
8 | GCACAGCAAUAUUACGGCCU | -1.66 ± 0.11 | -0.461 ± 0.12
9 | GCACAGCAAUAUUACGGGGA | -2.29 ± 0.11 | -1.5 ± 0.1
10 | GCACAGCAAUAUUACGGGUC | -3.81 ± 0.17 | -1.62 ± 0.097
11 | GCACAGCAAUAUUACGGUAG | -3.61 ± 0.15 | -1.98 ± 0.11
12 | GCACAGCAAUAUUACGGUUC | -0.415 ± 0.055 | -0.0499 ± 0.073
13 | GCACAGCAAUAUUACGUACU | -1.2 ± 0.069 | -1.2 ± 0.094
14 | GCACAGCAAUAUUACGUCAA | -0.993 ± 0.079 | -0.565 ± 0.082
15 | GCACAGCAAUAUUACGUCUC | -0.14 ± 0.056 | 0.38 ± 0.059
16 | GCACAGCAAUAUUACGUGUU | -3.75 ± 0.089 | -2.07 ± 0.085
17 | GCACAGCAAUAUUACGUUGC | -3.95 ± 0.17 | -2.57 ± 0.17
18 | GCAGAGCAAUAUUACGAGAU | -2.04 ± 0.29 | -2.15 ± 0.39
19 | GCAGAGCAAUAUUACGAGCU | -4.1 ± 0.42 | -1.17 ± 0.26
20 | GCAGAGCAAUAUUACGAGUG | -4.02 ± 0.48 | -2.25 ± 0.26
21 | GCAGAGCAAUAUUACGAUGU | -4.4 ± 0.34 | -2.42 ± 0.19
22 | GCAGAGCAAUAUUACGCAAC | -1.53 ± 0.35 | -2.13 ± 0.43
23 | GCAGAGCAAUAUUACGCAAU |  | -1.61 ± 0.28
24 | GCAGAGCAAUAUUACGCGCA | -2.97 ± 0.24 | -1.61 ± 0.17
25 | GCAGAGCAAUAUUACGGAGA |  | -2.09 ± 0.43

Row | Sequence | self-splicing fitness (ln) (30 °C) | self-splicing fitness (ln) (37 °C)
26 | GCAGAGCAAUAUUACGGAUC | -2.59 ± 0.34 | -1.6 ± 0.29
27 | GCAGAGCAAUAUUACGGCAU | -3.03 ± 0.17 | -0.473 ± 0.11
28 | GCAGAGCAAUAUUACGGCUU | -1.92 ± 0.27 | -0.671 ± 0.21
29 | GCAGAGCAAUAUUACGGUUG | -3.01 ± 0.34 | -2.87 ± 0.47
30 | GCAGAGCAAUAUUACGUCAA | -2.73 ± 0.45 | 
31 | GCAGAGCAAUAUUACGUGAG | -1.62 ± 0.08 | -1.65 ± 0.1
32 | GCAGAGCAAUAUUACGUGCU | -3.24 ± 0.15 | -2.73 ± 0.22
33 | GCAGAGCAAUAUUACGUGUG | -2.07 ± 0.22 | -2.63 ± 0.25
34 | GCAGAGCAAUAUUACGUUAG | -3.42 ± 0.26 | -1.61 ± 0.17
35 | GCAUAGCAAUAUUACGACAU | -1.03 ± 0.013 | -0.295 ± 0.032
36 | GCAUAGCAAUAUUACGACGG |  | -1.01 ± 0.41
37 | GCAUAGCAAUAUUACGAGCC | -2.61 ± 0.2 | -2.49 ± 0.33
38 | GCAUAGCAAUAUUACGAGGG | -3.43 ± 0.23 | -1.69 ± 0.17
39 | GCAUAGCAAUAUUACGAUGA | -0.554 ± 0.079 | 0.0691 ± 0.07
40 | GCAUAGCAAUAUUACGCAAG | -3.49 ± 0.41 | -2.31 ± 0.33
41 | GCAUAGCAAUAUUACGCAGC |  | -1.68 ± 0.44
42 | GCAUAGCAAUAUUACGCCAU | -4.39 ± 0.46 | -2.23 ± 0.28
43 | GCAUAGCAAUAUUACGCCCU | -1.78 ± 0.35 | -0.121 ± 0.33
44 | GCAUAGCAAUAUUACGCCUG | -1.22 ± 0.081 | -1.49 ± 0.1
45 | GCAUAGCAAUAUUACGCGCC | -3.02 ± 0.49 | -1.93 ± 0.36
46 | GCAUAGCAAUAUUACGCUGG |  | -2.15 ± 0.49
47 | GCAUAGCAAUAUUACGGCAC | -1.15 ± 0.14 | -0.425 ± 0.15
48 | GCAUAGCAAUAUUACGGGAU | -1.41 ± 0.085 | -0.646 ± 0.11
49 | GCAUAGCAAUAUUACGGGCC |  | -1.97 ± 0.27
50 | GCAUAGCAAUAUUACGGGGG | -2.53 ± 0.23 | -2.13 ± 0.23

Row | Sequence | self-splicing fitness (ln) (30 °C) | self-splicing fitness (ln) (37 °C)
51 | GCAUAGCAAUAUUACGGUGC | -3.71 ± 0.46 | 
52 | GCAUAGCAAUAUUACGGUUA | -1.34 ± 0.093 | -0.638 ± 0.084
53 | GCAUAGCAAUAUUACGUAGA | -2.41 ± 0.16 | -0.999 ± 0.17
54 | GCAUAGCAAUAUUACGUGUG | -3.17 ± 0.14 | -1.57 ± 0.12
55 | GCAUAGCAAUAUUACGUUCG | -1.43 ± 0.08 | 0.166 ± 0.09
56 | GCAUAGCAAUAUUACGUUGC | -3.65 ± 0.21 | -1.72 ± 0.21
57 | GCCAAGCAAUAUUACGACAC | -0.962 ± 0.06 | -0.0161 ± 0.08
58 | GCCAAGCAAUAUUACGACAG | -3.63 ± 0.2 | -3.8 ± 0.39
59 | GCCAAGCAAUAUUACGAGGU | -3.83 ± 0.18 | -2.74 ± 0.26
60 | GCCAAGCAAUAUUACGCAUG | -4.41 ± 0.46 | -2.22 ± 0.3
61 | GCCAAGCAAUAUUACGCCUU | -2.83 ± 0.13 | -1.26 ± 0.12
62 | GCCAAGCAAUAUUACGCGGA | -1.1 ± 0.099 | -0.277 ± 0.11
63 | GCCAAGCAAUAUUACGCGGU | -3.73 ± 0.2 | -3.25 ± 0.27
64 | GCCAAGCAAUAUUACGCUGU | -2.26 ± 0.12 | -1.36 ± 0.13
65 | GCCAAGCAAUAUUACGGACC | -3.32 ± 0.15 | -0.612 ± 0.13
66 | GCCAAGCAAUAUUACGGCAC | -2.04 ± 0.12 | -0.268 ± 0.12
67 | GCCAAGCAAUAUUACGGCAU | -3.55 ± 0.21 | -2.55 ± 0.19
68 | GCCAAGCAAUAUUACGGCUC | -1.99 ± 0.071 | -0.526 ± 0.091
69 | GCCAAGCAAUAUUACGGGAG | -3.55 ± 0.19 | -1.46 ± 0.13
70 | GCCAAGCAAUAUUACGGGCG | -1.36 ± 0.09 | -0.322 ± 0.11
71 | GCCAAGCAAUAUUACGUACC | -1.28 ± 0.1 | -0.683 ± 0.15
72 | GCCAAGCAAUAUUACGUAGU | -0.579 ± 0.051 | -0.395 ± 0.06
73 | GCCAAGCAAUAUUACGUAUC | -1.66 ± 0.066 | -0.646 ± 0.082
74 | GCCAAGCAAUAUUACGUCAU | -2.96 ± 0.22 | -2.59 ± 0.18
75 | GCCAAGCAAUAUUACGUCGG | -2.95 ± 0.18 | -2.28 ± 0.24

Row | Sequence | self-splicing fitness (ln) (30 °C) | self-splicing fitness (ln) (37 °C)
76 | GCCCAGCAAUAUUACGAAGG | -3.32 ± 0.14 | -2.42 ± 0.21
77 | GCCCAGCAAUAUUACGAAGU | -0.333 ± 0.054 | 0.22 ± 0.069
78 | GCCCAGCAAUAUUACGACGU | 0.175 ± 0.053 | 0.441 ± 0.067
79 | GCCCAGCAAUAUUACGACUC | -0.305 ± 0.059 | 0.916 ± 0.087
80 | GCCCAGCAAUAUUACGAGAC | -2.15 ± 0.093 | -0.787 ± 0.085
81 | GCCCAGCAAUAUUACGAGAG | -2.63 ± 0.096 | -1.42 ± 0.1
82 | GCCCAGCAAUAUUACGAGGA | -0.441 ± 0.075 | -0.147 ± 0.086
83 | GCCCAGCAAUAUUACGAUAC | -2.24 ± 0.086 | -0.313 ± 0.094
84 | GCCCAGCAAUAUUACGAUUU | -1.07 ± 0.076 | -0.735 ± 0.1
85 | GCCCAGCAAUAUUACGCAAG | -2.79 ± 0.093 | -2.46 ± 0.14
86 | GCCCAGCAAUAUUACGCAGU | -0.834 ± 0.049 | 0.141 ± 0.056
87 | GCCCAGCAAUAUUACGCAUC | -0.67 ± 0.075 | -0.106 ± 0.092
88 | GCCCAGCAAUAUUACGCCCC | -1.48 ± 0.15 | -0.245 ± 0.22
89 | GCCCAGCAAUAUUACGCCUG | -3.5 ± 0.3 | -2.64 ± 0.26
90 | GCCCAGCAAUAUUACGCGGA | -0.775 ± 0.098 | -0.201 ± 0.12
91 | GCCCAGCAAUAUUACGCGUU | 0.0719 ± 0.046 | 0.222 ± 0.065
92 | GCCCAGCAAUAUUACGGAUA | -0.88 ± 0.078 | 0.215 ± 0.089
93 | GCCCAGCAAUAUUACGGCCG | -1.11 ± 0.28 | 
94 | GCCCAGCAAUAUUACGGCCU | -2.68 ± 0.16 | -0.992 ± 0.13
95 | GCCCAGCAAUAUUACGGGAC | -4.73 ± 0.31 | -2.48 ± 0.14
96 | GCCCAGCAAUAUUACGUCAA | -2.62 ± 0.1 | -1.68 ± 0.097
97 | GCCCAGCAAUAUUACGUGUC | -0.887 ± 0.053 | -0.349 ± 0.066
98 | GCCCAGCAAUAUUACGUGUG | -2.21 ± 0.08 | -1.69 ± 0.081
